From patent US20170253670A1

How the values were obtained:
[1] = biological target: cynomolgus FolR1 monovalent Fc fusion, biotinylated (cynomolgus); test: SPR Biacore, bivalent avidity (apparent KD), antigen on chip
[2] = biological target: cynomolgus FolR1 monovalent Fc fusion, biotinylated (cynomolgus); test: SPR Biacore, bivalent avidity, antigen on chip
[3] = biological target: human FolR1 monovalent Fc fusion, biotinylated (human) (UniProt P15328); test: SPR Biacore, bivalent avidity, antigen on chip
[4] = biological target: cynomolgus FolR1 monovalent Fc fusion, biotinylated (cynomolgus); test: SPR Biacore, monovalent, binder captured via anti-Fab
[5] = biological target: human FolR1 monovalent Fc fusion, biotinylated (human) (UniProt P15328); test: as above
[6] = biological target: human FolR1 monovalent Fc fusion, biotinylated (human) (UniProt P15328); test: SPR Biacore, bivalent avidity (apparent KD), antigen on chip

Chain of cynomolgus FolR1 monovalent Fc fusion, biotinylated (cynomolgus) (chain, as listed by the source limits assumed, form in doubt): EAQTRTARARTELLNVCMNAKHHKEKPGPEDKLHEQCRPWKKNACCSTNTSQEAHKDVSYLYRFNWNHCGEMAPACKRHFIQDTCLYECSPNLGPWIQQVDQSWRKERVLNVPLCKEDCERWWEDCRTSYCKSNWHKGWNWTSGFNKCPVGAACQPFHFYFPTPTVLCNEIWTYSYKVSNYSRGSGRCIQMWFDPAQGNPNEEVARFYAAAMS
Chain of human FolR1 monovalent Fc fusion, biotinylated (human) (P15328 25-233 limits assumed): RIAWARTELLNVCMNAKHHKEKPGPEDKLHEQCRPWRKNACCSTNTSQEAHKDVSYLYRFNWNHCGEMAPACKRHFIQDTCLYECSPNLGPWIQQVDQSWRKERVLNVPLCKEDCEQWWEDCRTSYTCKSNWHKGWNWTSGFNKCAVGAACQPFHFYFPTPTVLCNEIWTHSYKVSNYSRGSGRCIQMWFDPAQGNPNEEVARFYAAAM

Kd [1] [nM] | koff [2] [s⁻¹] | kon [2] [M⁻¹ s⁻¹] | koff [3] [s⁻¹] | kon [3] [M⁻¹ s⁻¹] | Kd [4] [nM] | koff [4] [s⁻¹] | kon [4] [M⁻¹ s⁻¹] | koff [5] [s⁻¹] | kon [5] [M⁻¹ s⁻¹] | Kd [6] [nM] | Kd [5] [nM] | Binder
0.65 | 0.000868 | 1.33e+06 | 0.0009 | 1.23e+06 | 67.3 | 0.0373 | 553000 | 0.023 | 417000 |  |  | Farletuzumab (antibody, INN chains, looked up, V domains shown) VH: EVQLVESGGGVVQPGRSLRLSCSASGFTFSGYGLSWVRQAPGKGLEWVAMISSGGSYTYYADSVKGRFAISRDNAKNTLFLQMDSLRPEDTGVYFCARHGDDPAWFAYWGQGTPVTVSS VL: DIQLTQSPSSLSASVGDRVTITCSVSSSISSNNLHWYQQKPGKAPKPWIYGTSNLASGVPSRFSGSGSGTDYTFTISSLQPEDIATYYCQQWSSYPYMYTFGQGTKVEIKR
0.108 | 0.000139 | 1.29e+06 | 0.000121 | 861000 | 0.65 | 0.000193 | 297000 | 0.000159 | 289000 | 0.14 | 0.55 | Mov19 IgG (antibody, from a related filing, V domains shown, part only) VH: QVQLQQSGAELVKPGASVKISCKASGYSFTGYFMNWVKQSHGKSLEWIGRIHPYDGDTFYNQNFKDKATLTVDKSSNTAHMELLSLTSEDFAVYYCTRYDGSRAMDYWGQGTTVTVSS VL: DIELTQSPASLAVSLGQRAIISCKASQSVSFAGTSLMHWYHQKPGQQPKLLIYRASNLEAGVPTRFSGSGSKTDFTLNIHPVEEEDAATYYCQQSREYPYTFGGGTKLEIK
